From US20240254229A1 (Molecular Partners, published 2024)

Columns and labels:
[1] = biological target: T1, hCD123 (recombinant, construct not stated) (human, UniProt P26951 19-305, limits assumed); test: switchSENSE, hCD33 and hCD123 co-immobilised 2:1; panel headed CD123, column KD1 (affinity)
T1 construct: also called CD123 (Ligand 2)
T1 sequence (looked up): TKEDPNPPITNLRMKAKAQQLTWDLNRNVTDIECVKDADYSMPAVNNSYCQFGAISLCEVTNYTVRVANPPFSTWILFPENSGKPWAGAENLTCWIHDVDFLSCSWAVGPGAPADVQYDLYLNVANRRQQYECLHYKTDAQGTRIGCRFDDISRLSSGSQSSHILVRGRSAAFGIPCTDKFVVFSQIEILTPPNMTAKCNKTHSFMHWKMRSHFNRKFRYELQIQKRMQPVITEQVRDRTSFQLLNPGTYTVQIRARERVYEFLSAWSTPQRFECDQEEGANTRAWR
Procedure: (§1) The designed ankyrin repeat proteins: DARPin® protein #20, DARPin® protein #21, DARPin® protein #22, DARPin® protein #27, DARPin® protein #40 and DARPin® protein #41 were tested in a concentration of 0.16 and 64 nM (in a buffer PE140 containing 10 mM Na2HPO4/NaH2PO4, 140 mM NaCl, 0.05% Tween20, 50 μM EDTA, 50 μM EGTA) for binding against two ligands hCD33 and hCD123, which both were immobilized simultaneously to DNA nanolevers, on the surface, at a pre-defined ratio (2:1, CD33:CD123) and 10% density (100:50) on an ADP-48-1-0 chip, where 100% density 1000 receptors/μm2 (preincubated R1-B48-CD123 and G1-A48-CD33 (100 nM) diluted in cNL-48 (dark)). Briefly the following steps were performed: [0724] Conjugation. Amine coupling of the two ligands (CD33 and CD123) to the DNA nanolever (A48, B48, respectively) and purification of the conjugates using the proFIRE® solution (Dynamic Biosensors GmbH) at 25° C. [0725] Evaluation of all the combined affinity and avidity of all different proteins to both ligands attached on the surface of an ADP chip using a DRX+ instrument (dynamic BIOSENSORS). [0726] Statistical analysis (repeatability from 2 to 5 times) including regeneration of the chip surface every concentration analyzed and long dissociation times and data were fitted using a bi-exponential global fit.

[2] = biological target: T2, hCD33 (recombinant, construct not stated) (human, UniProt P20138 18-259, limits assumed); test: switchSENSE; KD,1 (affinity)
T2 construct: also called CD33 (Ligand 1)
Procedure: as §1

[3] = biological target: T1, hCD123 (recombinant, construct not …); test: switchSENSE; KD,1 (affinity)
Procedure: as §1

[4] = biological target: T1, hCD123 (recombinant, construct not …); test: switchSENSE, CD33 and CD123 on one chip; kon to CD123
Procedure: as §1

[5] = biological target: T2, hCD33 (recombinant, construct not …); test: switchSENSE, hCD33 and hCD123 co-immobilised 2:1; panel headed CD33, column KD1 (affinity)

T2 sequence (P20138 18-259 limits assumed): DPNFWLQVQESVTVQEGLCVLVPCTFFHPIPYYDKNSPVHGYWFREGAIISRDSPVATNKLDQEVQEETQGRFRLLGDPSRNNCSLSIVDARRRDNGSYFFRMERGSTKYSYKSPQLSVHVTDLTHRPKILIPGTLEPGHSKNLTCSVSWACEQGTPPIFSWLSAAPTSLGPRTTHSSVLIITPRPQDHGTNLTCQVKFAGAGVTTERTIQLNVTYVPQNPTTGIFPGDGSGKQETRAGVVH

Kd [1]: 4.5 nM
Kd [2]: ~20 nM
Kd [3]: ~4.5 nM
kon [4]: ~1e+07 M⁻¹ s⁻¹
Kd [5]: 20 nM
B1: DARPin® protein #27 (designed binder)
chain: DLGKKLLEAALEGQLDEVRELLKAGADVNAKDQEGYTPLHLAAALGHLEIVEVLLKAGADVNAKDSIGRTPLHLAAYKGHLEIVEVLLKAGADVNAQDLLGETPADLAAEQGHQDIAEVLQKAAGSPTPTPTTPTPTPTTPTPTPTGSDLGVKLLLAASRGQLDEVRILLKAGADVNAKDIDEGYTPLHIAAYYGHLEIVEVLLKAGADVNAKDRYGKTPLHLAAISGHLEIVEVLLKAGADVNAQDDKGDTPADLAADYGHQDIAEVLQKAAGSPTPTPTTPTPTPTTPTPTPTGSDLGQKLLEAAWAGQDDEVRELLKAGADVNAKNSRGWTPLHTAAQTGHLEIFEVLLKAGADVNAKDDKGVTPLHLAAALGHLEIVEVLLKAGADVNAQDSWGTTPADLAAKYGHEDIAEVLQKAA
notes: CD123-CD33-CD3; also called αCD123-aCD33-αCD3_1; not shown: N-terminal His-tag
